Reference: PMC12046049 (2025)
One block for each binder: values may come before it.

Tests used:
[1] = target: HSPB7ACD (α-crystallin domain, residues 78-162 of isoform 2) (human, UniProt Q9UBY9-2 78-162)
[2] = target: HSPB1ACD (α-crystallin domain of HSPB1) (human)
[3] = target: T1, HSPB5ACD (α-crystallin domain of HSPB5) (human)
T1 chain: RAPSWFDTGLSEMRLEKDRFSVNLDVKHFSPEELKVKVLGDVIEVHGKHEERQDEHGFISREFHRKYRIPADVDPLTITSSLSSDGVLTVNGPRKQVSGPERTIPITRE

HSPB1ACD (α-crystallin domain of HSPB1) (human), sequence (chain, as listed by the source): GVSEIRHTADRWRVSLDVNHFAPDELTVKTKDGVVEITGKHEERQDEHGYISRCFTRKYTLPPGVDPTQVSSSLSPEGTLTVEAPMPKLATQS

Kd [1]: 109 µM
Binder: ITIPVTFE [HSPB1 C-terminal peptide (cognate peptide of HSPB1ACD)]

Kd [2]: 559 µM | Kd [3]: 186 µM | Kd [1]: 378 µM
Binder: TFRTEIKI [HSPB7 C-terminal peptide (residues 168-175, TFRTEIKI)]

Kd [3]: 23 µM | Kd [1]: 71 µM
B1: HSPB5 C-terminal peptide (cognate peptide of HSPB5ACD) (peptide)
chain: ERTIPITRE
modifications: Limits are not printed. 156-164, containing the IPI motif, is taken by convention from the peptide in the HSPB5 ACD-peptide structure PDB 4M5S; check residues come from the IPI motif, not numbered in the text. Terminal chemistry not stated.
